The source of these data is patent publication US20110076723A1, “ANTIBODY-PEPTIDE FUSED SYNERGIBODY” (SAMSUNG ELECTRONICS CO., LTD., priority 2008, published 2011).

Assay [1] concerns the target T1, recombinant VEGFR-2 protein (water soluble extracellular site of human VEGFR-2 with Fc of human IgG1 … (human, UniProt P35968 20-764)).
T1 construct: extracellular domain; Bought; not shown: Fc of human IgG1
In words: competitive ELISA; synergibody titrated with 1 nM VEGFR-2 on coated VEGF 165. As to the method: Competitive ELISA is performed using the peptides synthesized above in Section 6A in order to assess the molecular interaction of the binders. […] Then the plate is washed five times with PBS containing 0.1% Tween-20, and blocked at room temperature for two hours with PBS containing 5% BSA. For VEGF:VEGFR-2 neutralization ELISA, each of the peptides synthesized in Section 6A above are diluted to one-fourth each time from 100 nM with PBS containing 1 nM VEGFR-2 and 1% BSA, and adjusted to 6.1 pM. 100 μl of peptide/VEGFR-2 solution is added to each well and the plate is left to react at room temperature for two hours. Subsequently, it is washed five times with PBS containing 0.1% Tween-20, mouse anti-VEGFR-2 antibodies (R&D Systems) is diluted to about 1:3,000 with PBS containing 1% BSA, and left to react at room temperature for one hour. Then 100 μl of goat anti-mouse-IgG-HRP (Pierce) diluted to about 1:10,000 with PBS containing 1% BSA is added to each well of the plate, left to react at room temperature for one hour, and washed five times with PBS containing 0.1% Tween-20. Lastly, 100 μl of TMB substrate (SIGMA) is added to each well of the plate to induce color reaction. The reaction is stopped by adding 50 μl of 5N H₂SO₄ solution, and the OD₄₅₀ value is read on a plate reader (Molecular Devices). Through the foregoing, the IC₅₀ value for the VEGF:VEGFR-2 binding capacity is obtained.
The method in Example 2, Section 6B above is used, except that, in the present example, each fused protein synergibodies are diluted from 100 nM to one-fourth each time with PBS containing 1% BSA and 1nM VEGFR-2 and adjusted to 6.1 pM for VEGF:VEGF-2 neutralization ELISA.

Assay [2] deals with T2, recombinant hAng-2 (recombinant protein with His tag attached to human Ang-2; R&D Systems) (human, UniProt O15123 19-496).
T2 construct: also called angiopoietin-2; ANGPT2
T2 sequence (looked up): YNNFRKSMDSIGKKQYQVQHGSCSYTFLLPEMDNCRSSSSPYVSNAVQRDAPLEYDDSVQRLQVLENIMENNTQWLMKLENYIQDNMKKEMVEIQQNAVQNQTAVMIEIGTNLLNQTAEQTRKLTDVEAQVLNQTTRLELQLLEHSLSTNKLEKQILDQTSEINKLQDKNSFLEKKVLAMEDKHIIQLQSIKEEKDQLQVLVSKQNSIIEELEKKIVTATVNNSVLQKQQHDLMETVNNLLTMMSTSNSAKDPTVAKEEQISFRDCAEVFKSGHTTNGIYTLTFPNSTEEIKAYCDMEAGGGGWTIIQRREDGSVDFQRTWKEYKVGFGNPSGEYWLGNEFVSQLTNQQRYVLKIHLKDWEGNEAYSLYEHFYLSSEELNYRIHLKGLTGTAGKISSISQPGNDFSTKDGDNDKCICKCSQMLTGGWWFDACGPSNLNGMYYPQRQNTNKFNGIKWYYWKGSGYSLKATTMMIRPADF
Description: competitive ELISA; synergibody titrated with 1 nM hAng-2 (His) on coated hTie2-Fc. As to the method:
A competitive ELISA is performed to assess the molecular interaction of the binders. A 96-well MaxiSorp™ flat-bottom plate (Nunc) is coated with hTie2-Fc (R&D Systems), which is a fused protein including the water-soluble extracellular portion of human Tie-2 and Fc of human IgG₁ dissolved in DMEM culture solution containing 50 μg/ml bovine serum albumin (BSA). The concentration of hTie2-Fc used as a coating material is equivalent to 75% of its maximum binding concentration with 1 nM of recombinant hAng-2 (recombinant protein with His tag attached to human Ang-2; R&D Systems). Then the plate is washed five times with Phosphate Buffer Saline (PBS) containing 0.1% Tween-20 and blocked at room temperature for two hours with PBS containing 5% BSA. Each anti-Ang-2 antibodies are diluted from 100 nM by one-fourth each time with PBS containing 1% BSA and 1 nM hAng-2 and adjusted to 6.1 pM for Ang-2:Tie-2 neutralization ELISA. 100 μl of antibody/hAng-2 solutions are placed in each corresponding well and left to react at room temperature for two hours. Then the wells are washed five times with PBS containing 0.1% Tween-20, and the anti-His antibodies (GE Healthcare) are diluted to about 1:3,000 with PBS containing 1% BSA and left to react at room temperature for one hour. Afterwards, 100 μl of goat anti-mouse-IgG-HRP (Pierce) diluted with PBS containing 1% BSA to about 1:10,000 is added to each well of the plate, left to react at room temperature for one hour, and washed with PBS containing 0.1% Tween-20 five times. Lastly, 100 μl of TMB substrate (SIGMA) is added to each well of the plate to induce color reaction, and the reaction is stopped by adding 50 μl of 5N H₂SO₄ solution. The OD₄₅₀ value is read on a plate reader (Molecular Devices).
The method described in Example 1, Section 3 above is used, except that, in the present example, each fused protein synergibodies are diluted from 100 nM to one-fourth each time with PBS containing 1% BSA and 1 nM hAng-2 and adjusted to 6.1 pM for Ang-2:Tie-2 neutralization ELISA.

T1 sequence (P35968 20-764): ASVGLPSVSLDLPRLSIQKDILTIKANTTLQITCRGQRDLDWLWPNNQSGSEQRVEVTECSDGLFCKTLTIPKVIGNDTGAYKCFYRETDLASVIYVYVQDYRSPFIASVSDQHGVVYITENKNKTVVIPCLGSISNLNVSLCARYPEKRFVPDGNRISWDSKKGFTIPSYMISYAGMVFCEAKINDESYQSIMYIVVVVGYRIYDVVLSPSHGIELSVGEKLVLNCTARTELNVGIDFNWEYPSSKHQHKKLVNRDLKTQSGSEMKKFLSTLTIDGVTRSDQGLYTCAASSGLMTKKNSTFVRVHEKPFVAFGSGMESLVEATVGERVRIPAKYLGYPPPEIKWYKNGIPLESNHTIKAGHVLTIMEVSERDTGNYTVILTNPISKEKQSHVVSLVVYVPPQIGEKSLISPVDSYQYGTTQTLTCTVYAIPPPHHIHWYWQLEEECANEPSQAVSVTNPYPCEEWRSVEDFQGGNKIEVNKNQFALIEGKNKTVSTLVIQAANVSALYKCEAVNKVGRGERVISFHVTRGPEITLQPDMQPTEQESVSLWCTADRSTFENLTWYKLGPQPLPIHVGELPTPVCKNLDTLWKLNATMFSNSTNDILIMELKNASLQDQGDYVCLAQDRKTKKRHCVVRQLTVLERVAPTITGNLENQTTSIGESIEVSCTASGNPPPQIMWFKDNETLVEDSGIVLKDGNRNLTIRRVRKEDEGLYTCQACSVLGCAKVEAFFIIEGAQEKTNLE

B1: Syn-Ang-VEGFR-11 (other)
heavy (part 1 of 2): DVQLVESGGGLVQPGGSRKLSCAASGFTFSSFGMHWVRQAPEKGLEWVAYISSDSSTIYYADTVKGRFTISRDNPKNTLFLQMTSLRSEDTAMYYCAREGGYDDYYAMDYWGQGTSVTVSS
heavy (part 2 of 2): TGSDDLCYTFPCMHY
light: DIQMTQSPASQSASLGESVTITCLASQTIGTWLAWYQQKPGKSPQLLIYAATSLADGVPSRFSGSGSGTKFSFKISSLQAEDFVSYYCQQLYSIPLTFGGGTKLEIK
notes: Chimeric (human IgG1) SAITAng-2-3 with the peptide at the C-terminus of the heavy chain; also called SAITAng-2-3 x DTN6VEGFR-2-1; not shown: human IgG1 heavy chain constant region with Fc region, from the vector; human light chain constant region, printed as 'constant region of human IgG1'
B1: the IC50 in assay [1] came out at 0.872 nM; in assay [2], 0.858 nM.

B2: Syn-Ang-VEGFR-14 (other)
heavy (part 1 of 2): DVQLVESGGGLVQPGGSRKLSCAASGFTFSSFGMHWVRQAPEKGLEWVAYISSDSSTIYYADTVKGRFTISRDNPKNTLFLQMTSLRSEDTAMYYCAREGGYDDYYAMDYWGQGTSVTVSS
heavy (part 2 of 2): TGSGRMCDGSGPPTNCWFT
light: DIQMTQSPASQSASLGESVTITCLASQTIGTWLAWYQQKPGKSPQLLIYAATSLADGVPSRFSGSGSGTKFSFKISSLQAEDFVSYYCQQLYSIPLTFGGGTKLEIK
notes: Chimeric (human IgG1) SAITAng-2-3 with the peptide at the C-terminus of the heavy chain; also called SAITAng-2-3 x DTN10VEGFR-2-4; not shown: human IgG1 heavy chain constant region with Fc region, from the vector; human light chain constant region, printed as 'constant region of human IgG1'
As for B2, the IC50 in assay [1] amounted to 0.889 nM; in assay [2], 0.887 nM.

B3: Syn-Ang-VEGFR-13 (other)
heavy (part 1 of 2): DVQLVESGGGLVQPGGSRKLSCAASGFTFSSFGMHWVRQAPEKGLEWVAYISSDSSTIYYADTVKGRFTISRDNPKNTLFLQMTSLRSEDTAMYYCAREGGYDDYYAMDYWGQGTSVTVSS
heavy (part 2 of 2): EAGAYWCKAWGLSPCLVT
light: DIQMTQSPASQSASLGESVTITCLASQTIGTWLAWYQQKPGKSPQLLIYAATSLADGVPSRFSGSGSGTKFSFKISSLQAEDFVSYYCQQLYSIPLTFGGGTKLEIK
notes: Chimeric (human IgG1) SAITAng-2-3 with the peptide at the C-terminus of the heavy chain; also called SAITAng-2-3 x DTN9VEGFR-2-3; not shown: human IgG1 heavy chain constant region with Fc region, from the vector; human light chain constant region, printed as 'constant region of human IgG1'
For the molecule B3, the figures for the IC50 in assay [1] and in assay [2] were 0.914 nM and 0.903 nM, respectively.

B4: Syn-Ang-VEGFR-12 (other)
heavy (part 1 of 2): DVQLVESGGGLVQPGGSRKLSCAASGFTFSSFGMHWVRQAPEKGLEWVAYISSDSSTIYYADTVKGRFTISRDNPKNTLFLQMTSLRSEDTAMYYCAREGGYDDYYAMDYWGQGTSVTVSS
heavy (part 2 of 2): EAGKETCGYEWQYCPRP
light: DIQMTQSPASQSASLGESVTITCLASQTIGTWLAWYQQKPGKSPQLLIYAATSLADGVPSRFSGSGSGTKFSFKISSLQAEDFVSYYCQQLYSIPLTFGGGTKLEIK
notes: Chimeric (human IgG1) SAITAng-2-3 with the peptide at the C-terminus of the heavy chain; also called SAITAng-2-3 x DTN8VEGFR-2-2; not shown: human IgG1 heavy chain constant region with Fc region, from the vector; human light chain constant region, printed as 'constant region of human IgG1'
As to B4, the IC50 in assay [1] worked out at 0.854 nM; in assay [2] it was 0.833 nM.

B5: Syn-Ang-VEGFR-15 (other)
heavy (part 1 of 2): DVQLVESGGGLVQPGGSRKLSCAASGFTFSSFGMHWVRQAPEKGLEWVAYISSDSSTIYYADTVKGRFTISRDNPKNTLFLQMTSLRSEDTAMYYCAREGGYDDYYAMDYWGQGTSVTVSS
heavy (part 2 of 2): PGSQGYCHLNMRYQWICDSE
light: DIQMTQSPASQSASLGESVTITCLASQTIGTWLAWYQQKPGKSPQLLIYAATSLADGVPSRFSGSGSGTKFSFKISSLQAEDFVSYYCQQLYSIPLTFGGGTKLEIK
notes: Chimeric (human IgG1) SAITAng-2-3 with the peptide at the C-terminus of the heavy chain; also called SAITAng-2-3 x DTN11VEGFR-2-5; not shown: human IgG1 heavy chain constant region with Fc region, from the vector; human light chain constant region, printed as 'constant region of human IgG1'
For the molecule B5, the IC50 was found to be 1.05 nM in assay [1] and 0.925 nM in assay [2].

B6: Syn-Ang-VEGFR-16 (other)
heavy (part 1 of 2): QVQLQQSGAELARPGASVKLSCKASGYTFTDYYINWAKQRTGQGLEWIGEIYPGSGDTYYNEKFKGKATLTADKSSSTAYMQLSSLTSEDSAVYFCARYGYKGVYFDYWGQSTTLTVSS
heavy (part 2 of 2): TGSDDLCYTFPCMHY
light: ENVLTQSPAIMAASLGQKVTMTCSASSSVSSSYLHWYQQKSGASPKPLIHRTSNLASGVPARFSGSGSGTSYSLTISSVEAEDDATYYCQQWSGYPFTFGAGTKLELK
notes: Chimeric (human IgG1) SAITAng-2-4 with the peptide at the C-terminus of the heavy chain; also called SAITAng-2-4 x DTN6VEGFR-2-1; not shown: human IgG1 heavy chain constant region with Fc region, from the vector; human light chain constant region, printed as 'constant region of human IgG1'
As to B6, the IC50 in assay [1] stood at 1.16 nM; in assay [2] it was 1.22 nM.
